Columns and labels:
[1] = molecular target: mononucleosome containing H2B-Ub (ubiquitin on Lys120 of H2B by a stable isopeptide linkage) (UniProt P62807); test: SEC-MALS; mononucleosomes (300 pmol) with the catalytic domain of hDot1L (8.5 nmol) in 25 mM Tris-HCl, 150 mM NaCl, pH 7.8, 4 °C 30 min; Superdex 200 10/300
[2] = molecular target: unmodified mononucleosome; test: as above

- stoichiometry N (hDot1L per mononucleosome) [1]: 2
- stoichiometry N (hDot1L per mononucleosome) [2]: 1
Substance: cysteine-less catalytic domain of hDot1L, hDot1L(1–416)C44S/C74S/C178S (from UniProt Q8TEK3 2-417) (enzyme)
